{
  "source": "the DeepSol protein solubility set",
  "data": [
    {"experiment": "soluble on expression in E. coli; label from the status in PepcDB or PDB records", "values": [
      {"sequence": "MATQQPALVLDPTGADHHTEHRTLREGGPATWVDVLGVQAWSVSDPVLLKQLLTSSDVSKDARAHWPAFGEVVGTWPLALWVAVENMFTAYGPNHRKLRRLVAPAFSARRVDAMRPAVEAMVTGLVDRLAELPAGEPVDLRQELAYPLPIAVIGHLMGVPQDRRDGFRALVDGVFDTTLDQAEAQANTARLYEVLDQLIAAKRATPGDDMTSLLIAARDDEGDGDRLSPEELRDTLLLMISAGYETTVNVIDQAVHTLLTRPDQLALVRKGEVTWADVVEETLRHEPAVKHLPLRYAVTDIALPDGRTIARGEPILASYAAANRHPDWHEDADTFDATRTVKEHLAFGHGVHFCLGAPLARMEVTLALESLFGRFPDLRLADPAEELPPVPSLISNGHQRLPVLLHAG", "soluble on expression in E. coli": "soluble"},
      {"sequence": "MATTQQSSTKQDILEYLLKEVQATSLELAEVLEVSPQAIRRHLKDLETDNLVVYFVPEQVGMGRPQHLYQLSQRGREQLQRNVNRLSDGYGDFAVSLLDTLAATVGREQVKTILQKQWERKAQEYRERVGTGSLQERVANLVELRKAEGFMAEFYPVESDSAHSERFIFMEHTCAISNVAESFPSICGHELEMFAAILPDCTVKRTHWLIDGEHRCGYLVQRSSGVTGVTEVEN", "soluble on expression in E. coli": "not soluble"},
      {"sequence": "MATVAELKAVLKDTLEKKGVLGHLKARIRAEVFNALDDDREPRPSLSHENLLINELIREYLEFNKYKYTASVLIAESGQPVVPLDRQFLIHELNAFEESKDNTIPLLYGILAHFLRGTKDGIQNAFLKGPSLQPSDPSLGRQPSRRKPMDDHLRKEEQKSTNIEDLHVSQAVNR", "soluble on expression in E. coli": "soluble"},
      {"sequence": "MATYNGQGFIHDQLDSIRNQTLRPDYVLMRDDGSTDDTVKVVEDYIKEHRLDGWSITSNDKNLGWRLNFRQLLIDVLAYEVDYVFFSDQDDTWYHHKNKMQVDIMEERQDINLLSADIDIKKLSEEATIPNNFKFNGEETISKYPLDFSYHNYRQGWTFCLRKSFVDQVMTFYSDNLILSHDNLFAGVSGVIGSGYNLNRSVGEHKRHAENASGNILNMSSSYERHLQELYFVLSYYIILVPFLEKSSSSQLREAKAYLDFNQQRYKNAQNKDFVAILKQMMTKKRFYDSFSNRIRDLVFLLKDIKRSLEHHHHHH", "soluble on expression in E. coli": "soluble"},
      {"sequence": "MAVAALKALLPPERLRRLTPLGGFEARVYTDGERVYKVYRKEEAHLAGLEARRMARAGFGSLVLAVIQGAEGGVLVTRRFPGRPFAPEAFTSKTLAALSHLFLALHRLPEPGKVTQEELLSRLERFAESLHDQPEALSLVQALKREVGLAAGVERRFCHRDAWAGNLLLKAPEAEGPEVFLVDWARAGGDDPARDLALLKTGSLDLLGEEAARAALFRMARLYPKEVRERLAFYVPLTYLHDLHWFRTKEPQGFPQALEEKLPKALAFFRDFFPRRGAW", "soluble on expression in E. coli": "soluble"},
      {"sequence": "MAVDDAQALALFLRDRTGRSSHTLRAYGAELRRLMRWCGTHGFGPFSDLTRQQLLAYRHTLEHGSSGTANTTPPLSEATRTRALAVVASLYGYWYATGYLHANPAAGLSAGSRLEHHHHHH", "soluble on expression in E. coli": "not soluble"},
      {"sequence": "MAVMSYIDAITLAMREEMERDEKVFVLGEDVGKKGGVFKATHGLYDQFGEDRALDTPLAESAIAGVAIGAAMYGMRPIAEMQFADFIMPAVNQIVSEAAKIRYRSNNDWTCPITVRAPFGGGVHGALYHSQSVEAMFANQPGLKIVIPSTPYDAKGLLKAAIRDEDPVLFFEHKRAYRLIKGEVPEDDYVLPIGKADVKREGDDITVITYGLCVHFALQAAEKLAQDGISAHILDLRTVYPLDKEAIIEAASKTGKVLLVTEDNKEGSIMSEVAAIIAENCLFDLDAPIARLAGPDVPAMPYAPTMEKFFMVNPDKVEKAMRELAEF", "soluble on expression in E. coli": "not soluble"},
      {"sequence": "MAVPESKEALIKAINSQFTLLMKKIDAVPAERAFSPEMAGHAQGTQMSPANLVAYLLGWGNVVLKWHEDEEQGKTIDFPEAGYKWNQLGLLAQKFYQDYAPITDWAELIALLAANKLALIALVERYTDEQLYGEGWYGKWTRGRMIQFNTAAPYKNAAGRLRTWEKNKLEHHHHHH", "soluble on expression in E. coli": "not soluble"},
      {"sequence": "MAVTDLSLTNSSLMPTLNPMIQQLALAIAASWQSLPLKPYQLPEDLGYVEGRLEGEKLVIENRCYQTPQFRKMHLELAKVGKGLDILHCVMFPEPLYGLPLFGCNIVAGPGGVSAAIADLSPTQSDRQLPAAYQKSLAELGQPEFEQQRELPPWGEIFSEYCLFIRPSNVTEEERFVQRVVDFLQIHCHQSIVAEPLSEAQTLEHRQGQIHYCQQQQKNDKTRRVLEKAFGEAWAERYMSQVLFDVIQ", "soluble on expression in E. coli": "soluble"},
      {"sequence": "MAVTKSSSLLIVGAGTWGTSTALHLARRGYTNVTVLDPYPVPSAISAGNDVNKVISSGQYSNNKDEIEVNEILAEEAFNGWKNDPLFKPYYHDTGLLMSACSQEGLDRLGVRVRPGEDPNLVELTRPEQFRKLAPEGVLQGDFPGWKGYFARSGAGWAHARNALVAAAREAQRMGVKFVTGTPQGRVVTLIFENNDVKGAVTADGKIWRAERTFLCAGASAGQFLDFKNQLRPTAWTLVHIALKPEERALYKNIPVIFNIERGFFFEPDEERGEIKICDEHPGYTNMVQSADGTMMSIPFEKTQIPKEAETRVRALLKETMPQLADRPFSFARICWCADTANREFLIDRHPQYHSLVLGCGASGRGFKYLPSIGNLIVDAMEGKVPQKIHELIKWNPDIAANRNWRDTLGRFGGPNRVMDFHDVKEWTNVQYRDISKL", "soluble on expression in E. coli": "soluble"},
      {"sequence": "MAYKKVLLAVNVYENADIVINSAVDFAKKNNTQVLKVVTVIDCVAPFAPSIVDFQHSIEQEAKEALDKLVTKISGIKVEHEVLVGNPAAEIVEYAEESNCDVIVLGSHATHGINLLLGSVANTVLHKAKCDVLTVRVNDDENADSKAHSYKRLLVPTDLENDSYVVVDKAKDIAKLYSAKIDTAFVIPNDSISLMTYETDKVETTLDKFAEKNGITGEKSVMIGGISNSLLEKAAENKNDLIVVGSHRRGAIGRFFLGSTANSILHQANVDVLVVRLK", "soluble on expression in E. coli": "soluble"},
      {"sequence": "MAYVKERIYESMFIIAPNVPEEERENLVERVKKIIEERVKGKIDKVERMGMRKFAYEIKKFNEGDYTVIYFRCDGQNLQELENFYRVTPEIIRWQTFRRFDLEKKERKAQREKAAAEATESSEGGSED", "soluble on expression in E. coli": "not soluble"},
      {"sequence": "MCAVLGDNSVSYNTMKFWFEKIKKKNYDLDDKPRSGRPRLDIDEDISRALEDDPRSMSREISATLKRPHTTIINHLHESGRVPKFGQLVPHNLSDSQKNLRCDLSLSLLTRKRTTDWVKDITTGDEKWVLYVNHTRKKQWVPVEEHAEPDLKGELHEKKVLLSIWWDSMGVIFRELLPDGATINADLYCIQLEKVVHAHQLHRPRGSKLLLLHDNARPHTALKTRQKLQTLGIEVLPHPPYSPDLAPTDYHLFRSLQNHLAGQKFHDRKAVETWLDDFFASKSQEFYAEGIAQLPLRWQEVIDTNGEYITH", "soluble on expression in E. coli": "not soluble"},
      {"sequence": "MCKNPISIIIRIQHNIKVLPEILKACEQLHPLEIILTINGYIDDSIDIAQSYNCKIITLEEPSELNNCYVIGATKAKGKYLLFLDANYIIQSSLLTQFLQPLLDESADIVLNNLDDFFYQKQKPTIEMIWQQVTNHFFHRPDLHVNSLLFPPYAITKEILDAITPESLLNPILAQMKIIKNKFRISNHFKISIPQIPSFPSKQLIRYHLEAIENWVNILQDSRGNYTDNNRRRDIILELQNGEQRAIPKIITGKKFYSNTYGNKQLSIIIPVQNEEKTIESIIFEVQKLKPLEIIIIVNGSTDKTEELAKNCGATVITYKEALGIDTGRAVGAYFAKGDILLFIDGDFLIPSSDLLPFVQSVQNGTDLALNKLEHYYMYRVPYTIVTACKHVVNLACNRKDLGMGSTTAVPHAFSRKCIDTIGFDSLLSPTLSQVKTILAGLHVQNVHSIDVDKINRVRPEKHFSQEGYLSLATQQIIGDHIEAISYLIEQKRNTEYFLEHHHHHH", "soluble on expression in E. coli": "not soluble"},
      {"sequence": "MCMDKNVMWLRERINKVIKALEENNMNGYLVNSKEELISKIEELTNSGDIVACGGSMSLFEAGVIDHLRSGRYEFLDRYKEGLKPEDIKKIYRDAFSSDVYFTSTNAITEEGEIYNVDGNGNRVAAMLYGPDKVIIVAGYNKIVENLSEAIQRNRRISAPANAKRLNKKTPCAKVGNCMDCKSPEKICREYTLIRSQSNSNRIHVIFLNEELGYLEHHHHHH", "soluble on expression in E. coli": "soluble"},
      {"sequence": "MCRHCHFLSAIAPVSGTNKSQPGNKWDMVLLVPFDGSALSKAALTRAMEFADYRDEDITALSVIPDDAAYAREHGWLDADEAFTVEAVADRMREQAESVAPAASFRYEVPEDVSSMASTTTNITRTIREVAHEEEASIVFIGSENAGRVSTPVCSVGSPVSEDPEYDVHIVRHP", "soluble on expression in E. coli": "not soluble"},
      {"sequence": "MCRLAVFALLAVAAVSVYGQPAGGQDVPPFLRNATPAQLQSFQQLIQANGHLTETALDGKVQAWVNQQGGKVAADWADFQKFIKGQQGQAEAAHQAAVSNFSPAAKKADADLTAISNDSSLSVQAKGQKIQAYLNSLPANVKAELEKAQGQ", "soluble on expression in E. coli": "soluble"},
      {"sequence": "MDAEEKMGVELSSPSAIMEHARRLYMSKDYRSLESLFGRCLWKSYNLDLWMLYIEYVRKVSQKKFKLFEVYEFTLGQFENYWDSYGLFKEYIEELGKIEDEQTRIEKIRNGYMRALQTPMGSLSELWKDFENFELELNKITGKKIVGDTLPLFQSSFQRYQQIQPLIRGWSVKNAARLIDLEMENGMKLGGRPHESRMHFIHNYILDSFFYAEEVYFFYSEYLIGIGQKEKAKKVVERGIEMSDGMFLSLYYGLVMDEEAVYGDLKRKYSMGEAESAEKVFSKELDLLRINHLNYVLKKRGLELFRKLFIELGNEGVGPHVFIYCAFIEYYATGSRATPYNIFSSGLLKHPDSTLLKEEFFLFLLRIGDEENARALFKRLEKTSRMWDSMIEYEFMVGSMELFRELVDQKMDAIKADAILPPLPPREHNVQMEGILGRYHCFLDSFNFLDLKIRDNSRLLDEFMENLPKISQQNNVLSNLRVEKVISLLKSVQ", "soluble on expression in E. coli": "soluble"},
      {"sequence": "MDAENEDFDGAEDSDHTDNDKKEDELSLDNVLRLGGTKADYVMLAGISDTTELINGGKKVIIDDLEEGELEDFIKQLGIRAYADQQIIQDEEDPASSEPTQKEGKKAKGSKVKEDAAPNVKNKVTPSTQATKTSVQSTNLANATGKKAKQKPANLFEFIPRQFLLIKPGGKWFDIEYTSEGTSVAQNESLTCQYKALAQKLYENETALYKSKKSLQKGANSAWMKTRKLRTFSQHPFEELEEKSSGNKDTRDRRLILWYFEHQLKLQIADFVVTLDELAHDMVEATKMRALTTAYELLCNQPEQEKLLLVQIVNKLEDA", "soluble on expression in E. coli": "soluble"},
      {"sequence": "MDAGLDARGKGWARAITRLCDEHLYYLMLYFRWFDEDSWRVLKPVFFGSLPFGVRDAVAWAMRRKVRATLRAQGLGVHGRDELLAFARDDLDALDGLLGQVPYYGGEHPCSADAAAYGILANLIEATLDTPLSHVARGYPRLVAYCERMRERVWSELEHHHHHH", "soluble on expression in E. coli": "not soluble"},
      {"sequence": "MDAIILQENIEGLLSLVRMLLPDGGSAGCVYLDDLSALQRSIHEKINDLYSQRGETPEQDATLCLAILQGYNVSMYANPEDEERKQAVLTRSLSLLDVLPPSLLKQQLSAVCYGMQELCEIN", "soluble on expression in E. coli": "not soluble"},
      {"sequence": "MDALSRLLTLNAPQGSIDKNCPLGGDWQLPHAAGELSVIRWHTVTQGEAQLEMPTGDAMTLTPGKVVILPQNSAHRLRQSGESPTHIVCGSLRLHTTSRYFLTALPEVLCLAPPPHSPASIWINATILLLQQESERHLPGADVLYSQQCATLFTLAVRDWLSQAGTAKSVLNLLLHPRLGRVILHMLETPAHPWTVETLAQRVHMSRASFAQLFRDVSATTPLAVLTTLRLQIAAQTLSREVLPVMVIAESVGYASESSFHKAFVREFGCTPGEYRKRVSALGR", "soluble on expression in E. coli": "not soluble"},
      {"sequence": "MDCIRVTTIGYYHRDGDMRVTPGLLPKILNRECLKPLREDFFNLNIEVPDSGQGENNMVSFLDYISQTKCLEDAQPDFVTNKQILTALTGNKPFTIHAIHLKGTIFSFKSGEVRYQDTKNFGGAFEHFCTRTRNDEQLETDDTVRKAVFKAEIPRGNTQFYRVLYSGQIDAIDNEVDRKHYELKIMSQGLNEYFWKEKSCKFYWQSVFGNAPVLIIGSRSGQYSTQTTNNYPPYSLYKVEELKRDRIPSMAARCRKIPGRFGPAPPWKISEGEDNALYFLDLVKDNVINDGDCFSFTRTDENPDWDVKRDEESAAQFRDVVLQYLDR", "soluble on expression in E. coli": "not soluble"}
    ]}
  ]
}
